Measurements published in US20140066321A1 (PANGU BIOPHARMA, published 2014).

B1: human HRS variant with deletion of residues 507-509 (HRS Δ507-509) (enzyme)
chain: MAERAALEELVKLQGERVRGLKQQKASAELIEEEVAKLLKLKAQLGPDESKQKFVLKTPKGTRDYSPRQMAVREKVFDVIIRCFKRHGAEVIDTPVFELKETLMGKYGEDSKLIYDLKDQGGELLSLRYDLTVPFARYLAMNKLTNIKRYHIAKVYRRDNPAMTRGRYREFYQCDFDIAGNFDPMIPDAECLKIMCEILSSLQIGDFLVKVNDRRILDGMFAICGVSDSKFRTICSSVDKLDKVSWEEVKNEMVGEKGLAPEVADRIGDYVQQHGGVSLVEQLLQDPKLSQNKQALEGLGDLKLLFEYLTLFGIDDKISFDLSLARGLDYYTGVIYEAVLLQTPAQAGEEPLGVGSVAAGGRYDGLVGMFDPKGRKVPCVGLSIGVERIFSIVEQRLEALEEKIRTTETQVLVASAQKKLLEERLKLVSELWDAGIKAELLYKKNPKLLNQLQYCEEAGIPLVAIIGEQELKDGVIKLRSVTSREEVDVRREDLVEEIKRRTGQPL
notes: the row under measurements tells of its self-association into a dimer (size exclusion chromatography)
B2: human HRS variant with deletion of residues 1-53 and residues 507-509 (HRS Δ1-53-Δ507-509) (enzyme)
chain: FVLKTPKGTRDYSPRQMAVREKVFDVIIRCFKRHGAEVIDTPVFELKETLMGKYGEDSKLIYDLKDQGGELLSLRYDLTVPFARYLAMNKLTNIKRYHIAKVYRRDNPAMTRGRYREFYQCDFDIAGNFDPMIPDAECLKIMCEILSSLQIGDFLVKVNDRRILDGMFAICGVSDSKFRTICSSVDKLDKVSWEEVKNEMVGEKGLAPEVADRIGDYVQQHGGVSLVEQLLQDPKLSQNKQALEGLGDLKLLFEYLTLFGIDDKISFDLSLARGLDYYTGVIYEAVLLQTPAQAGEEPLGVGSVAAGGRYDGLVGMFDPKGRKVPCVGLSIGVERIFSIVEQRLEALEEKIRTTETQVLVASAQKKLLEERLKLVSELWDAGIKAELLYKKNPKLLNQLQYCEEAGIPLVAIIGEQELKDGVIKLRSVTSREEVDVRREDLVEEIKRRTGQPL
notes: the row under measurements tells of its self-association into a dimer in the crystal structure

How the values were obtained:
[1] = target: the molecule itself; test: size exclusion chromatography (self-association, homodimer)
Protocol: The cDNA encoding native human cytoplasmic HRS and the splice variant HRSΔCD were cloned into a modified pET32 vector and fused to the N-terminal thioredoxin-His₆-tags. The fusion proteins were expressed in E. coli BL21(DE3) and first purified by Ni²⁺-NTA affinity chromatography Next, the thioredoxin-His₆-tag was removed by protease-3C digestion. The cleaved protein mixtures were further separated by a size-exclusion chromatography in a buffer containing 50 mM Tris (pH 7.5), 100 mM NaCl, 1 mM EDTA and 1 mM […] Native HRS and HRSΔCD mutants were created using the standard PCR-based mutagenesis method. The mutant proteins were purified using a protocol identical to that used for native HRS and HRSΔCD. Analytical gel filtration chromatography was carried out on an AKTA FPLC system (GE Healthcare). Proteins were loaded onto a Superose 12 10/300 GL column (GE Healthcare) equilibrated with a buffer containing 50 mM Tris (pH 7.5), 100 mM NaCl, […] EDTA and 1 mM […].

[2] = target: the molecule itself; test: X-ray crystal structure at 2.4 Å (self-association, homodimer)
Protocol: To set up a […], 1 μl of protein sample was mixed with 1 μl of crystallization solution with 0.2 M ammonium citrate. […] Before diffraction experiments, crystals were soaked in crystallization solution containing […] for cryoprotection. […] Specifically, crystals were soaked in crystallization solution containing 10-20% glycerol for 5-10 mins. The diffraction data were collected at the Shanghai Synchrotron Radiation Facility and were processed and scaled using HKL2000.
The phase was improved by density modifications with RESOLVE. The initial model was built in COOT. […] The models were refined in Refmac5 and PHENIX. […] All structure figures were prepared by PyMOL

Protein | binding result [1] | binding result [2]
B1 | binds | 
B2 |  | binds
